# Test results taken from the nanobody polyreactivity screen of Harvey et al. (2022).
# Test: yeast display, Sf9 membrane polyspecificity reagent, FACS + sequencing; frameworks hold sequencing errors
# Method in brief: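 After 36–48 hours of galactose induction, yeast (Saccharomyces cerevisiae BJ5465) displaying a synthetic nanobody library were stained at 4 °C for 1 hour with 10% biotinylated, detergent-solubilized Sf9 membrane reagent. Streptavidin microbeads enriched the stained cells before FACS sorting into low and high (top ~1%) gates on anti-HA and streptavidin fluorescence. Each clone's polyreactivity label reflects its gate of origin.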
row,Sequence,polyreactivity (PSR sort gate)
1,QVQLVESGGGLVQAGGSLRLSCAASGSTFFGNTMGWYRKAPGKERELVATITRRGGSTYYADSVKGRFTISRDNAKNTVYLQMNSLKPEDTAVYYCAKRGPYTKYDYWGQGTQVTVSS,low polyreactivity
2,QVQLVESGGGLVQAGGSLRLSCAASGSTFFGYAMGWYRQAPGKERELVAAIRYNGGRTYYADSVKGRFTISRDNAKNTVYLQMNSLKPEDTAVYYCAAYISYSRTYYYWGQGTQVTVSS,low polyreactivity
3,QVQLVESGGGLVQAGGSLRLSCAASGSTFFGYTMGWYRQARGKERELVAAITRRGGSTYYADSVKGRFTISRDNAKNTVYLQLNSLKPEDTAVYYCNAVSKSTNYAGRYDYWGQATQVTVSS,high polyreactivity
4,QVQLVESGGGLVQAGGSLRLSCAASGSTFFIKAMGWYRQAPGKERELVAAITSTDSTTYADSVKGRFTISRDNAKNTVYLQMNSLKPEDTAVYYCAKETIGQDPVSGAWARHEYDYWGQGTQVTVSS,low polyreactivity
5,QVQLVESGGGLVQAGGSLRLSCAASGSTFFINAMGWYRQEHGTEREFVASISYSGGSTYYADSVKGRFTISRDNAKNTVYLQMNSLKPEDTAVYYCNADVRVFLHYSKYNYWGQGTQVTVSS,low polyreactivity
6,QVQLVESGGGLVQAGGSLRLSCAASGSTFFIYAMGWYRQAPGKERELVAAISWRDGSTYYADSVKGRFTISRDNAKNTVYLQMNSLKPEDTAVYYCAADYLLPWGIELDYWGQGTQVTVSS,high polyreactivity
7,QVQLVESGGGLVQAGGSLRLSCAASGSTFFKNTMGWYRQAPGKEREFVAAIRWSTSRTYYADSVKGRFTISRDNAKYTVYLQMTSLKPEDTAVYYCNAGTSLSRRYPEDYYWGQGTQVTVSS,high polyreactivity
8,QVQLVESGGGLVQAGGSLRLSCAASGSTFFLKAMGWYRQSPGKERELVAAISYSDSGTNYADSVKGRFTISRDNAKNTVYLQMNSLKPEDTAVYYCATAVRPWYVTSGNYWGQGTQVTVSS,low polyreactivity
9,QVQLVESGGGLVQAGGSLRLSCAASGSTFFLYAMGWYRQAAGKERELVAAISVSGGSTRYADSVNGRFTISRDHAKNTVYLQMNSLKPEDTAVYYCAAASRLEYSHATLYYWGQGTQVTVSS,high polyreactivity
10,QVQLVESGGGLVQAGGSLRLSCAASGSTFFLYAMGWYRQAPGKEREFVAAISIGGSTNYADSVKGRFTISRDNAKNTVYLQMNSLKPEDTAVYYCAKLDLQYIQYLGYDYWGQGTQVTVSS,low polyreactivity
11,QVQLVESGGGLVQAGGSLRLSCAASGSTFFPYAMGWYRQAPGKERELVAAIRWSGGRTYYADSVKGRFTISRDNAKNTVYLQMNSLKPEDTAVYYCAADKYLDYDYWGQGTQVTVSS,high polyreactivity
12,QVQLVESGGGLVQAGGSLRLSCAASGSTFFPYAMGWYRQAPGKVRELVAAIRWSGGRTYYADSVKGRFTISRDNAKNTVFLQMNSLNPEDTAVYYCAAYKYLDYDYGGQGTQVTVSS,high polyreactivity
13,QVQLVESGGGLVQAGGSLRLSCAASGSTFFRNAMGCYRQAPGKERELVADISASGGSTYYADSVKGRFTISRDNAKNTVYLQMNSLKPEDTAVYYCNALYIYFYNYLTMDYWGQGTQVTVSS,low polyreactivity
14,QVQLVESGGGLVQAGGSLRLSCAASGSTFFSNTMGWYRQAPGKERELVAAITSRGGRTYYADSVKGRFTISRDNAKNTVYLQMNSLKPEDTAVYYCAARFVLHGVYLKFYWGQGTQVTVSS,high polyreactivity
15,QVQLVESGGGLVQAGGSLRLSCAASGSTFFSYAMGWYRQAPGKERELVAAISWIDDGTYYADSVKGRFTISRDNAKNTVYLQMNSLKPEDTAVYYCAATKFWYYGYDYWGQGTQVTVSS,low polyreactivity
16,QVQLVESGGGLVQAGGSLRLSCAASGSTFFTNAMGWYRPAPGKERELVAAITINDGSTFYADSVKGRFTISRDNAKNSDYLQMNSLKPEDTAVYYCNTDGVDLYDYWGQGTQVTVSS,low polyreactivity
17,QVQLVESGGGLVQAGGSLRLSCAASGSTFFTNAMGWYRQAPGKERELVAAITINDGSTFYADSVKGRFTISRDNAKNTVYLQMNSLKPEDTAVYYCNADGVDLYDYWGQGTQVTVSS,low polyreactivity
18,QVQLVESGGGLVQAGGSLRLSCAASGSTFFTNVMGWYRQAPGKERELVAVIRWRGSDTYYADSVKGRFTISRDNAKNTVYLQMNSLKPEDTAVYYCNAIESFYPTTGEQGYSYDYWGQGTQVTVSS,low polyreactivity
19,QVQLVESGGGLVQAGGSLRLSCAASGSTFFVNAMGWYRQAPGKERELVASITVSSGRTYYADSVKGRFTISRDNAKNTVYLQMNSLKPEDTAVYYCAARHLYWRREGYYWGQGTQVTVSS,high polyreactivity
20,QVQLVESGGGLVQAGGSLRLSCAASGSTFFVYDMGWYRQAPGKERELVAAISSDTSTNYADSVKGRFTISRDNAKNTVYLQMNSLKPEDTAVYYCNADSYWEYDYWGQGTQVTVSS,low polyreactivity
21,QVQLVESGGGLVQAGGSLRLSCAASGSTFFYNAMGWYIQAPGKERELVAAITVTGTSTYYADSVKGRFTISRDNAKNTVYLQMNSLKPEDTGVYYCNTSLKRRRLRFNYWGQGTQVTVSS,low polyreactivity
22,QVQLVESGGGLVQAGGSLRLSCAASGSTFFYYAMGWYRQAPGKERELVARITRGGGSTNYADSVKGRFTISRDNAKNTVYLQMNSLKREDTAVYYCAKRRKVTYDYWGQGTQVTVSS,high polyreactivity
23,QVQLVESGGGLVQAGGSLRLSCAASGSTFFYYAMGWYRQAPGKERELVATIRGSAGRTYYADSVKGRFTISRDNAKNTVYLQMNSLKPEDTAVYYCARRYWPGSAYWIYDYWGQGTQVTVSS,high polyreactivity
24,QVQLVESGGGLVQAGGSLRLSCAASGSTFGDNAMGWYRQAPGKERELVAAITSVGTTYYADSVKGRFTISRDNAKNTVYLQMNSLKPEDTAVYYCNAEYVWDDYFEFDYWGQGTQVTVSS,low polyreactivity
25,QVQLVESGGGLVQAGGSLRLSCAASGSTFGDYAMGWYRQAPGKERELVAAISVRGGSTYYADSVKGRFTISRDYAQNTVYLQMNSLKPEDTAVYYCNKDLYRYPGYDSWGQGTQVTVSS,high polyreactivity
26,QVQLVESGGGLVQAGGSLRLSCAASGSTFGENAMGWYRQAPGKERELVAAISSGGSTNYADSVNGRFTISRDNAQNTVYLQMNSLQPEDTAVYYCNRYPVRDTGGYWGQGTQVTVSS,low polyreactivity
27,QVQLVESGGGLVQAGGSLRLSCAASGSTFGFNGMGWYRQAPGKERELVAAIRSSGGSTYYADSVKGRFTISRDNAKNTVYLQMNSLKPEDTAVYYCAADYYTYGFANWYLWYDYWGQGTQVTVSS,high polyreactivity
28,QVQLVESGGGLVQAGGSLRLSCAASGSTFGFYAMGWYRQAPGKERELVAAIDSGGSTYYADSVKGRFTISRDNAKNTVYLQMNSLKPEDTAVYYCAVRHRYTRAYWGRDYWGQGTQVTVSS,low polyreactivity
29,QVQLVESGGGLVQAGGSLRLSCAASGSTFGFYAMGWYRQAPGKERELVAAISSSGSTYYADSVKGRFTISRDNAKNTVYLQMISLKPEDTAVYYCAAQPGYYDYDYWGQGTQVTVSS,low polyreactivity
30,QVQLVESGGGLVQAGGSLRLSCAASGSTFGGNAKGWYRQAPGKERELGAAISSSGGSTYYADSVKGRFTLSRDNAKNTVYLQMNSLKPEDTAVYYCAALYHWTYDYWGQGTQVTVSS,low polyreactivity
